Measurements as given in IntAct's records for PubMed 26559832.

B1: Ribonucleoside-diphosphate reductase large subunit (Human herpesvirus 2 (strain HG52) (HHV-2)), P89462 (parent)
chain: MANRPAASALAGARSPSERQEPREPEVAPPGGDHVFCRKVSGVMVLSSDPPGPAAYRISDSSFVQCGSNCSMIIDGDVARGHLRDLEGATSTGAFVAISNVAAGGDGRTAVVALGGTSGPSATTSVGTQTSGEFLHGNPRTPEPQGPQAVPPPPPPPFPWGHECCARRDARGGAEKDVGAAESWSDGPSSDSETEDSDSSDEDTGSETLSRSSSIWAAGATDDDDSDSDSRSDDSVQPDVVVRRRWSDGPAPVAFPKPRRPGDSPGNPGLGAGTGPGSATDPRASADSDSAAHAAAPQADVAPVLDSQPTVGTDPGYPVPLELTPENAEAVARFLGDAVDREPALMLEYFCRCAREESKRVPPRTFGSAPRLTEDDFGLLNYALAEMRRLCLDLPPVPPNAYTPYHLREYATRLVNGFKPLVRRSARLYRILGVLVHLRIRTREASFEEWMRSKEVDLDFGLTERLREHEAQLMILAQALNPYDCLIHSTPNTLVERGLQSALKYEEFYLKRFGGHYMESVFQMYTRIAGFLACRATRGMRHIALGRQGSWWEMFKFFFHRLYDHQIVPSTPAMLNLGTRNYYTSSCYLVNPQATTNQATLRAITGNVSAILARNGGIGLCMQAFNDASPGTASIMPALKVLDSLVAAHNKQSTRPTGACVYLEPWHSDVRAVLRMKGVLAGEEAQRCDNIFSALWMPDLFFKRLIRHLDGEKNVTWSLFDRDTSMSLADFHGEEFEKLYEHLEAMGFGETIPIQDLAYAIVRSAATTGSPFIMFKDAVNRHYIYDTQGAAIAGSNLCTEIVHPASKRSSGVCNLGSVNLARCVSRQTFDFGRLRDAVQACVLMVNIMIDSTLQPTPQCTRGNDNLRSMGIGMQGLHTACLKMGLDLESAEFRDLNTHIAEVMLLAAMKTSNALCVRGARPFSHFKRSMYRAGRFHWERFSNASPRYEGEWEMLRQSMMKHGLRNSQFIALMPTAASAQISDVSEGFAPLFTNLFSKVTRDGETLRPNTLLLKELERTFGGKRLLDAMDGLEAKQWSVAQALPCLDPAHPLRRFKTAFDYDQELLIDLCADRAPYVDHSQSMTLYVTEKADGTLPASTLVRLLVHAYKRGLKTGMYYCKVRKATNSGVFAGDDNIVCTSCAL

Variants of: B1
Conditions: with ripk3_human RIPK3, Q9Y572
ripk3_human RIPK3, Q9Y572, sequence (Q9Y572 whole entry, looked up): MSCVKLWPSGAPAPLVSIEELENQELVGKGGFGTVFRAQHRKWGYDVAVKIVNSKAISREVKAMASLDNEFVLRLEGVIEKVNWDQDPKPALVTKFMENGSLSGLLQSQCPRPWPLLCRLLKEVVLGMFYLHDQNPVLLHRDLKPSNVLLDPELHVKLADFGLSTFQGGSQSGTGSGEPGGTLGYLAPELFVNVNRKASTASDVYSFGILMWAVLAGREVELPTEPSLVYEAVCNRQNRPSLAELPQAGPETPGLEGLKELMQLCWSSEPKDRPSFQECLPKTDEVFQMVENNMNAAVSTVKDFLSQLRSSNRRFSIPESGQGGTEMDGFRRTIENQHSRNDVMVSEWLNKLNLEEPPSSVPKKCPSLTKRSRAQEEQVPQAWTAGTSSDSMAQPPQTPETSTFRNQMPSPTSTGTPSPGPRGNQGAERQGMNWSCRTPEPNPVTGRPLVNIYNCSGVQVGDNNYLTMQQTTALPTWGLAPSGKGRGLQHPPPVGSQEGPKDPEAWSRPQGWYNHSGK

Variant | effect of a mutation on the interaction
V64A;Q65A;C66A;G67A | decreasing interaction strength
